Measurements as given in the supplement of paper PMC7125110.
± gives the standard error. For some of these results: Fewer inactive variants are shown than the library holds.

B1: glmS ribozyme (parent)
chain: AUAAAAGCGCCAGAACUACAGAAAUGUAGUUGACGAGGAGGAGGUUUAUCGAAUUUUCGGCGGAUGCCUCCAAA

How the values were obtained:
Conditions in all cases: with glucosamine-6-phosphate
glucosamine-6-phosphate [1] = variants of: B1; experiment: kcat; higher = faster cleavage; RNA array
Summary of the method: (§1)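 Sequenced MiSeq chips were the platform: E. coli RNA polymerase transcribed barcoded ribozyme variants on them in situ, and a hybridised Cy3 probe tracked these at 37 °C. After glucosamine-6-phosphate (40 μM to 10 mM) in HEPES/KCl/Mg(OAc)2 buffer was flowed in, tiles were imaged over ~14 h. Signals normalised to baseline and to non-cleaving reference variants were reduced to per-tile medians and fit to one- or two-exponential decays to obtain kobs. kcat and KM were derived through weighted Michaelis–Menten fits across concentrations.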

glucosamine-6-phosphate [2] = variants of: B1; experiment: self-cleavage kobs at 160 uM GlcN6P; higher = faster cleavage; RNA array
Summary of the method: as §1

glucosamine-6-phosphate [3] = variants of: B1; experiment: self-cleavage kobs at 640 uM GlcN6P; higher = faster cleavage; RNA array
Summary of the method: as §1

glucosamine-6-phosphate [4] = variants of: B1; experiment: self-cleavage kobs at 10000 uM GlcN6P; higher = faster cleavage; RNA array
Summary of the method: as §1

glucosamine-6-phosphate [5] = variants of: B1; experiment: KM; higher = weaker cofactor use; RNA array
Summary of the method: as §1

glucosamine-6-phosphate [6] = variants of: B1; experiment: self-cleavage kobs at 40 uM GlcN6P; higher = faster cleavage; RNA array
Summary of the method: as §1

glucosamine-6-phosphate [7] = variants of: B1; experiment: self-cleavage kobs at 2500 uM GlcN6P; higher = faster cleavage; RNA array
Summary of the method: as §1

Variant | kcat (glucosamine-6-phosphate [1]) [s⁻¹] | self-cleavage kobs at 160 uM GlcN6P (glucosamine-6-phosphate [2]) [s⁻¹] | self-cleavage kobs at 640 uM GlcN6P (glucosamine-6-phosphate [3]) [s⁻¹] | self-cleavage kobs at 10000 uM GlcN6P (glucosamine-6-phosphate [4]) [s⁻¹] | KM (glucosamine-6-phosphate [5]) [µM] | self-cleavage kobs at 40 uM GlcN6P (glucosamine-6-phosphate [6]) [s⁻¹] | self-cleavage kobs at 2500 uM GlcN6P (glucosamine-6-phosphate [7]) [s⁻¹]
C61A C71G | 1.3e-05 ± 2.8e-06 | – | – | – | – | – | –
U47A C70G | 0.000131 ± 1.7e-05 | 9.75e-05 ± 2.2e-05 | 0.00011 ± 1.3e-05 | 0.000128 ± 2.5e-05 | – | – | –
G43U U46G | 2.88e-05 ± 5.1e-06 | – | < 1e-05 | – | – | – | –
C8U C61A | < 1e-05 | – | – | – | – | – | –
U31A A33G C70A | 1.81e-05 ± 5.1e-06 | – | – | – | – | – | –
G29U U46G | 0.00127 ± 0.00012 | 9.52e-05 ± 2e-05 | 0.000259 ± 5e-05 | 0.00106 ± 0.00013 | 2110 ± 340 | 3.07e-05 ± 9.8e-06 | 0.000689 ± 0.00011
C10A C67G | 8.97e-05 ± 1.7e-05 | – | 8.76e-05 ± 1.4e-05 | – | – | 2.69e-05 ± 1.1e-05 | 7.6e-05 ± 1.7e-05
U31C C71U | 0.00657 ± 0.0031 | 0.000289 ± 3.6e-05 | 0.00111 ± 0.00013 | 0.00504 ± 0.00056 | – | 0.000177 ± 1.7e-05 | 0.00536 ± 0.00083
U45G C67G | 0.000915 ± 0.00011 | 7.93e-05 ± 2.7e-05 | 0.000303 ± 4.8e-05 | 0.000846 ± 0.00011 | 1420 ± 340 | 3.25e-05 ± 1.2e-05 | 0.000477 ± 0.00011
C10U A12U | 0.000153 ± 2.3e-05 | – | 1.92e-05 ± 6e-06 | 0.000113 ± 9e-06 | 3200 ± 1200 | – | 8.4e-05 ± 1.2e-05
C16U U65G | 0.0044 ± 0.00062 | 0.000151 ± 1.7e-05 | 0.000544 ± 7.2e-05 | 0.0032 ± 0.00028 | 4300 ± 840 | 5.04e-05 ± 6.5e-06 | 0.00147 ± 0.00018
A39C U57A | 2.13e-05 ± 6e-06 | – | – | – | – | < 1e-05 | 2.6e-05 ± 1.3e-05
G13A C70A | 2.43e-05 ± 6.3e-06 | – | – | – | – | – | –
A12U C16G G40C | 0.000662 ± 7.1e-05 | – | 9.91e-05 ± 3.2e-05 | 0.000481 ± 9.8e-05 | 3490 ± 700 | – | 0.000322 ± 0.00011
G29C A52U | 5.44e-05 ± 2.8e-06 | – | – | 4.6e-05 ± 1e-05 | 1790 ± 390 | < 1e-05 | 3.25e-05 ± 1.4e-05
A6U A15U G63U G66A | 1.95e-05 ± 6.5e-06 | – | – | – | – | – | –
G38U C58G | < 1e-05 | – | – | – | – | – | –
U65A C68U | 0.000403 ± 0.00012 | 0.000111 ± 1.8e-05 | 0.000186 ± 2.8e-05 | 0.000655 ± 8.7e-05 | – | 3.81e-05 ± 8.7e-06 | 0.000287 ± 4.2e-05
A12U U65C | 0.0021 ± 0.00079 | 0.000217 ± 5.2e-05 | 0.000421 ± 9.9e-05 | 0.00151 ± 0.00034 | – | 4.28e-05 ± 1.2e-05 | 0.00209 ± 0.00035
